As a reminder, the koff is the first-order rate constant of dissociation. Read a low koff as a long-lived complex.

We go through 1 molecule from article PMC12299175 (2025).

The target in this assay is synthetic peptide of stem helix (1141-1161) of SARS-CoV-2 WT S with biotin at C terminus (SARS-CoV-2, UniProt P0DTC2 1141-1161, biotin at C terminus). Description: BLI. On the technique in general: In BLI a coated tip is dipped into the sample, and binding shifts an interference pattern.

B1: S2P6 recombinant mAb with human IgG1 constant region (antibody, V domains shown)
VH: EVQLVQSGAEVKKPGASVKVSCKASGYTFTSQYMHWVRQAPGQGLEWIGIINPSGVHTSYAQKFQGRVTLTRDTSTSTLYMELSSLRSEDTAVYYCARGSPKGAFDYWGQGTLVTVSS
VL: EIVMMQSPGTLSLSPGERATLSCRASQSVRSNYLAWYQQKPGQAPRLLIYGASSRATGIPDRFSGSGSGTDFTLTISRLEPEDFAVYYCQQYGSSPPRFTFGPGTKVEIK
Consider B1, for which the koff was < 1e-06 s⁻¹.
